Measurements as given in publication PMC7798916 (National Science Review, 2020).

How the values were obtained:
Conditions in all cases: both partners purified
[1] = molecular target: T1, SARS-CoV-2 RBD (recombinant receptor binding domain of the S glycoprotein) (SARS-CoV-2, UniProt P0DTC2); assay: cell-based immunofluorescent blocking assay
[2] = molecular target: T1, SARS-CoV-2 RBD (recombinant receptor …); assay: BLI
[3] = molecular target: T1, SARS-CoV-2 RBD (recombinant receptor …); assay: ELISA

B1: HB27 (humanized monoclonal antibody, IgG) (antibody, V domains shown)
VH: VKLVESGGGLVKPGGSLRLSCAASGFTFTNYGMSWVRQAPGKRLEWVAEISSGGSYTYYPDTVTGRFTISRDNAKNTLYLQMNSLRAEDTAVYYCARFRYGGGGTVDYWGQGTLVTVSS
VL: IVLTQSPTLSLSPGERATLSCRASESVDNYGISFMNWFQQKPGQAPRLLIYAASNQGSGIPSRFSGSGSGTDFSLTISSLEPEDFAVYFCQQSKEVPRIFGQGTKVEIL
notes: also called HB27 IgG; source: CHO cell line
EC50 [1]: 5000 to 50000 pM | Kd [2]: 70 pM | EC50 [3]: 500 pM

B2: HB27 Fab fragment (Fab, V domains shown)
VH: VKLVESGGGLVKPGGSLRLSCAASGFTFTNYGMSWVRQAPGKRLEWVAEISSGGSYTYYPDTVTGRFTISRDNAKNTLYLQMNSLRAEDTAVYYCARFRYGGGGTVDYWGQGTLVTVSS
VL: IVLTQSPTLSLSPGERATLSCRASESVDNYGISFMNWFQQKPGQAPRLLIYAASNQGSGIPSRFSGSGSGTDFSLTISSLEPEDFAVYFCQQSKEVPRIFGQGTKVEIL
Kd [2]: 270 pM
